Test results published in PMC13168374, “Reversible DNA condensation drives natural transformation”.

Key:
[1] = target: T1, ComEA deltaL internal_change (Geobacillus stearothermophilus) (UniProt A0A0K9HI54); experiment: optical tweezers overstretching; conditions: FP: 20 mM Tris-HCl pH 7.5, 200 mM KCl, 80 nM DNA, ~20 C (spin at 20 C; read temperature not stated); optical tweezers 23 +/- 1 C, buffer not given in material
T1 sequence: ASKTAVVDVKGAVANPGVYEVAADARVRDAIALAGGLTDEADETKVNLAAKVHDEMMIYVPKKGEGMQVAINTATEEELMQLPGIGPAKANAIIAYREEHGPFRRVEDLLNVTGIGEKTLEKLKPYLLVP

[2] = target: T2, ComEA A108Y A108Y (Geobacillus stearothermophilus) (UniProt A0A0K9HI54); experiment: optical tweezers overstretching; conditions: EC50 of overstretch force increase; Ymax 12.7 pN; 23 C; FP: 20 mM Tris-HCl pH 7.5, 200 mM KCl, 80 nM DNA, ~20 C (spin at 20 C; read temperature not stated); optical tweezers 23 +/- 1 C, buffer not given in material
T2 sequence: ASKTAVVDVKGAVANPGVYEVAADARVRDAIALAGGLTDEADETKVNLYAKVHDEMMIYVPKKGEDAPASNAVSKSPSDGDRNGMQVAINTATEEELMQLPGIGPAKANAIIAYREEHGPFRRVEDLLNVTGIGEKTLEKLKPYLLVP

[3] = target: ComEA LL ins19aa;after;143 (Geobacillus stearothermophilus) (UniProt A0A0K9HI54); experiment: optical tweezers overstretching; conditions: FP: 20 mM Tris-HCl pH 7.5, 200 mM KCl, 80 nM DNA, ~20 C (spin at 20 C; read temperature not stated); optical tweezers 23 +/- 1 C, buffer not given in material
[4] = target: T3, ComEA (soluble truncation) (Geobacillus stearothermophilus, UniProt A0A0K9HI54 60-207); experiment: optical tweezers overstretching; conditions: EC50 of overstretch force increase; Ymax 28.6 pN; 23 C; FP: 20 mM Tris-HCl pH 7.5, 200 mM KCl, 80 nM DNA, ~20 C (spin at 20 C; read temperature not stated); optical tweezers 23 +/- 1 C, buffer not given in material
T3 sequence: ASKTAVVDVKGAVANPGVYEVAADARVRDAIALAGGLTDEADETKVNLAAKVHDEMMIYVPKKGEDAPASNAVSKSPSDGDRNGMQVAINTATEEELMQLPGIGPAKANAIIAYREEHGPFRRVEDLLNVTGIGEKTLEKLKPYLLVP

[5] = target: ComEA from Geobacillus stearothermophilus, soluble truncation lacking the N-terminal sequence (amino acids 60-207) (Geobacillus stearothermophilus)
[6] = target: ComEA from Geobacillus stearothermophilus, soluble truncation lacking the N-terminal sequence (amino acids 60-207) (Geobacillus stearothermophilus); remark: listed apart in the source
[7] = target: ComEA from Geobacillus stearothermophilus, soluble truncation lacking the N-terminal sequence (amino acids 60-207) (Geobacillus stearothermophilus); remark: listed apart in the source
[8] = target: T3, ComEA (soluble truncation); experiment: fluorescence polarization; Hill coefficient 1.56 +/- 0.28; FP: 20 mM Tris-HCl pH 7.5, 200 mM KCl, 80 nM DNA, ~20 C (spin at 20 C; read temperature not stated); optical tweezers 23 +/- 1 C, buffer not given in material; conditions: protein: recombinant; label: 3'-fluorescein (36-FAM) on strand 1; blunt
[9] = target: T4, ComEA deltaL (Geobacillus stearothermophilus, UniProt A0A0K9HI54 60-124+143-207, internal_change); experiment: fluorescence polarization; Kd within error of ComEA; Hill >1; value in Fig. 5c only; FP: 20 mM Tris-HCl pH 7.5, 200 mM KCl, 80 nM DNA, ~20 C (spin at 20 C; read temperature not stated); optical tweezers 23 +/- 1 C, buffer not given in material; conditions: protein: recombinant; label: 3'-fluorescein (36-FAM) on strand 1; blunt
T4 sequence: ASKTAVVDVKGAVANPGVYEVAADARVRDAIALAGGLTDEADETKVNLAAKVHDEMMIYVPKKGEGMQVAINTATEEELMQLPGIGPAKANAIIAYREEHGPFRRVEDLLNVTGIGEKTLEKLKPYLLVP

[10] = target: T5, ComEA A108Y (Geobacillus stearothermophilus, UniProt A0A0K9HI54 60-207, A108Y); experiment: fluorescence polarization; Hill coefficient 0.96 +/- 0.16; FP: 20 mM Tris-HCl pH 7.5, 200 mM KCl, 80 nM DNA, ~20 C (spin at 20 C; read temperature not stated); optical tweezers 23 +/- 1 C, buffer not given in material; conditions: protein: recombinant; label: 3'-fluorescein (36-FAM) on strand 1; blunt
T5 sequence: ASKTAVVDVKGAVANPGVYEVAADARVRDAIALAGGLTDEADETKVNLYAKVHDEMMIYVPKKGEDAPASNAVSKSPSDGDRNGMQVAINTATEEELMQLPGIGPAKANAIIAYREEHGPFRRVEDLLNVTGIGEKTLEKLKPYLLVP

With 6 kbp dsDNA (optical tweezers) the K half [1] was 380 nM, the K half [2] was 210 nM and the K half [3] was 330 nM. For the same molecule, the K half [4] was 290 nM.

With “ComEA from Geobacillus stearothermophilus, soluble truncation lacking the N-terminal sequence (amino acids 60-207) (domain or fragment)” the condensation force produced and held for at least 1 s during the 10 s rest phase, optical tweezers, 20 nM-4 µM ComEA (value at 200 nM; buffer alone 0.03 pN) [5] was 0.11 pN, the condensation force from an eWLC fit of the DNA released per cycle against the extension held in the rest phase, optical tweezers [6] was 0.07 pN and the fold condensation of 5.495 kbp dsDNA (bounding circle radius, negative stain electron microscopy), 200 nM-4 µM ComEA, peak value [7] was 3.5 fold.

B1: 30 bp DNA duplex (dsDNA)
DNA 1: GCACTGTGAATATCACTACAGCAACCTTGA
DNA 2: TCAAGGTTGCTGTAGTGATATTCACAGTGC
B1 was tested, and the Kd [8] was 660 ± 80 nM, the binding result [9] was “binds” and the Kd [10] was 1910 ± 520 nM.
